Consider three molecules from patent EP4442322A1.

This assay has as its target ASGPR of the murine amino acid sequence (murine). Briefly: cell-based or functional assay.

Sequence of ASGPR of the murine amino acid sequence (murine) (P34927 whole entry, chain 1 of 2): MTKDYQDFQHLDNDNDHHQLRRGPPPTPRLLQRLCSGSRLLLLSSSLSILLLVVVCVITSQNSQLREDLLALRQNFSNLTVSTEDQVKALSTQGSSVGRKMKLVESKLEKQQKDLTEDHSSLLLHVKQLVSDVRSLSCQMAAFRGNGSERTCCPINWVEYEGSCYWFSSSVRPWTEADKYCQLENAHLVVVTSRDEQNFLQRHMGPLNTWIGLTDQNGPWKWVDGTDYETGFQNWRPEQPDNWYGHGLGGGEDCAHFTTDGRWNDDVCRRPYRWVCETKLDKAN
Sequence of ASGPR of the murine amino acid sequence (murine) (P24721 whole entry, chain 2 of 2, further chain): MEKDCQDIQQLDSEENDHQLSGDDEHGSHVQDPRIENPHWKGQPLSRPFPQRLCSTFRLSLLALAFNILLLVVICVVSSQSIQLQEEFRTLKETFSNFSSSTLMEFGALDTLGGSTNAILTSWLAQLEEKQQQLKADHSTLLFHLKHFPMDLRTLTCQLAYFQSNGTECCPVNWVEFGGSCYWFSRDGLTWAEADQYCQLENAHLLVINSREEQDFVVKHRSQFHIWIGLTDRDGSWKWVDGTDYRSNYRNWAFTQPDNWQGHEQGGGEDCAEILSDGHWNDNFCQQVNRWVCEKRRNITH

B1: CAR having the scFv of SEQ ID NO: 24 (C11), murine CD8 construct (mCD8) (protein)
chain: QIQLVQSGGGLVQPGGSLRLSCAGSGYTFSDHYMDWVRQAPGKGLEWVGRIRYKANSYSTEYAASVKGRFTISRDDSRNSLFLQMNSLKTEDTAVYYCARIRDRYYFDYWGQGALVTVSSGSASAPKLEEGEFSEARVQSVLTQPPSVSGAPGQRVTISCTGSSSNVGAGYDVHWYQQLPGAAPKLLIYGNSNRPSGVPDRFSGSKSGTSASLAISGLQSEDEADYYCAAWDDSLNGVVFGGGTKLTVLGQPKAAPSVTLFPPSSAAAGSEQKLISEEDLSHHHHHHSSVVPVLQKVNSTTTKPVLRTPSPVHPTGTSQPQRPEDCRPRGSVKGTGLDFACDIYIWAPLAGICVALLLSLIITLICYHRWTNSRRNRLLQSDYMNMTPRRPGLTRKPYQPYAPARDFAAYRPRAKFSRSAETAANLQDPNQLYNELNLGRREEYDVLEKKRARDPEMGGKQQRRRNPQEGVYNALQKDKMAEAYSEIGTKGERRRGKGHDGLYQGLSTATKDTYDALHMQTLAPR
Molecule B1 registered an activated cells (GFP), Q2 (Fig. 6F) of 4.04%; an activated cells (GFP), Q2 and Q3 in total (Fig. 6F) of 9.44%; an activated cells (GFP), Q3 (Fig. 6F) of 5.4%.

B2: CAR having the scFv of SEQ ID NO: 26 (C3), murine Ig-construct (mIg) (protein)
chain: VHSQVTLKESGGGLVQPGGSLRLSCAASGFTFSSYAMSWVRQAPGKGLEWVSAISGSGGSTYYADSVKGRFTISRDNSKNTLYLQMNSLRAEDTAVYYCAKDLKQWLEDYWGQGTLVTVSSGSASAPKLEEGEFSEARVDVVMTQSPSTLSASVGDRVTITCRASQSIGPWLAWYQQKPGEAPKLLLYKASILEGGVPSRFSGRGSGTEFTLTISSLQPDDFATYYCQQYNTFGPTFGQGTKLEIKRTVAAPSVFDPVPRDGGCKPCICTVPRDGGCKPCICTVPEVSSVFIFPPKPKDVLTITLTPKVTCVVVDISKDDPEVQFSWFVDDVEVHTAQTQPREEQFNSTFRSVSELPIMHQDWLNGKEFKCRVNSAAFPAPIEKTISKTKGRPKAPQVCTIPPPKEQMAKDKVSLTCMITDFFPEDITVEWQWNGQPAENYKNTQPIMDTDGSYFVYSKLNVQKSNWEAGNTFTCSVLHEGLHNHHTEKSLSHSPGVFLACVLGGSFGFLGFLGLCILCCVNSRRNRLLQSDYMNMTPRRPGLTRKPYQPYAPARDFAAYRPLRAKFSRSAETAANLQDPNQLYNELNLGRREEYDVLEKKRARDPEMGGKQQRRRNPQEGVYNALQKDKMAEAYSEIGTKGERRRGKGHDGLYQGLSTATKDTYDALHMQTLAPR
As to B2, the activated cells (GFP), Q2 (Fig. 9E) was 3.7%; the activated cells (GFP), Q2 and Q3 in total (Fig. 9E) came out at 6.06%; the activated cells (GFP), Q3 (Fig. 9E) was 2.36%.

B3: CAR having the scFv of SEQ ID NO: 24 (C11), murine Ig-construct (mIg) (protein)
chain: QIQLVQSGGGLVQPGGSLRLSCAGSGYTFSDHYMDWVRQAPGKGLEWVGRIRYKANSYSTEYAASVKGRFTISRDDSRNSLFLQMNSLKTEDTAVYYCARIRDRYYFDYWGQGALVTVSSGSASAPKLEEGEFSEARVQSVLTQPPSVSGAPGQRVTISCTGSSSNVGAGYDVHWYQQLPGAAPKLLIYGNSNRPSGVPDRFSGSKSGTSASLAISGLQSEDEADYYCAAWDDSLNGVVFGGGTKLTVLGQPKAAPSVTLFPPSSAAAGSEQKLISEEDLSHHHHHHVPRDGGCKPCICTVPEVSSVFIFPPKPKDVLTITLTPKVTCVVVDISKDDPEVQFSWFVDDVEVHTAQTQPREEQFNSTFRSVSELPIMHQDWLNGKEFKCRVNSAAFPAPIEKTISKTKGRPKAPQVCTIPPPKEQMAKDKVSLTCMITDFFPEDITVEWQWNGQPAENYKNTQPIMDTDGSYFVYSKLNVQKSNWEAGNTFTCSVLHEGLHNHHTEKSLSHSPGVFLACVLGGSFGFLGFLGLCILCCVNSRRNRLLQSDYMNMTPRRPGLTRKPYQPYAPARDFAAYRPLRAKFSRSAETAANLQDPNQLYNELNLGRREEYDVLEKKRARDPEMGGKQQRRRNPQEGVYNALQKDKMAEAYSEIGTKGERRRGKGHDGLYQGLSTATKDTYDALHMQTLAPR
On to B3, for which the activated cells (GFP), Q2 (Fig. 6E) was found to be 3.41%; the activated cells (GFP), Q2 and Q3 in total (Fig. 6E) amounted to 13.3%; the activated cells (GFP), Q3 (Fig. 6E) is 9.86%.
